Source: patent publication US20150258192A1, “COMPOSITIONS AND METHODS FOR PREVENTING OR TREATING CHRONIC LUNG ALLOGRAFT DYSFUNCTION (CLAD) AND IDIOPATHIC PULMONARY FIBROSIS (IPF)” (priority 2014, published 2015)
No end group written: not given here.

How the values were obtained:
Experiment in all cases: Kinase Profiling Assay
Type in all cases: biochemical
Conditions in all cases: peptide 100 μM
JNK1α1(h) = biological target: T1, JNK1α1(h) (Homo sapiens, UniProt P45983)
T1 construct: purchased Millipore
Method in brief: (§1)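 Radiometric filter-binding format: cationic substrate takes up labeled phosphate from ATP unless the inhibitor peptide blocks the kinase. Substrate bound to an anionic filter, scintillation-counted, normalized to 100% activity control. Duplicates; part of a 266-kinase selectivity panel for MK2 peptides.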

Flt1(h) = Flt1(h) (Homo sapiens, UniProt P17948)
Method in brief: as §1

Abl(T315I)(h) = Abl(T315I)(h) (Homo sapiens, UniProt P00519, T315I)
Method in brief: as §1

FGFR4(h) = FGFR4(h) (Homo sapiens, UniProt P22455)
Method in brief: as §1

CaMKIIβ(h) = CaMKIIβ(h) (Homo sapiens, UniProt Q13554)
Method in brief: as §1

CHK2(R145W)(h) = CHK2(R145W)(h) (Homo sapiens, UniProt O96017, R145W)
Method in brief: as §1

Aurora-B(h) = Aurora-B(h) (Homo sapiens, UniProt Q96GD4)
Method in brief: as §1

LKB1(h) = biological target: T2, LKB1(h) (Homo sapiens, UniProt Q15831)
T2 construct: purchased Millipore
T2 sequence (Q15831 1-433): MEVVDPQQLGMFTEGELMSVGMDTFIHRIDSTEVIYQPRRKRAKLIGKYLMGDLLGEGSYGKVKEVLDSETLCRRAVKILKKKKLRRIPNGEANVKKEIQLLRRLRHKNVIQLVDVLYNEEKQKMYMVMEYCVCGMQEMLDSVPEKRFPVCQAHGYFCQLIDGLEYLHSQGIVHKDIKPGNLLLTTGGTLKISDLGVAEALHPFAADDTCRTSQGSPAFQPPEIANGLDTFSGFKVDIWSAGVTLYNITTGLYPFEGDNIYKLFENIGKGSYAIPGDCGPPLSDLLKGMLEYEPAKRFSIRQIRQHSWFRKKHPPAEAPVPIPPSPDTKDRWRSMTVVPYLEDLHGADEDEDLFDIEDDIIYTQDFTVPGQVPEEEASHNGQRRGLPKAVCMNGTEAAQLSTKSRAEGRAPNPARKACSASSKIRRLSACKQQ
T2 sequence (Q7RTN6 1-431 partner): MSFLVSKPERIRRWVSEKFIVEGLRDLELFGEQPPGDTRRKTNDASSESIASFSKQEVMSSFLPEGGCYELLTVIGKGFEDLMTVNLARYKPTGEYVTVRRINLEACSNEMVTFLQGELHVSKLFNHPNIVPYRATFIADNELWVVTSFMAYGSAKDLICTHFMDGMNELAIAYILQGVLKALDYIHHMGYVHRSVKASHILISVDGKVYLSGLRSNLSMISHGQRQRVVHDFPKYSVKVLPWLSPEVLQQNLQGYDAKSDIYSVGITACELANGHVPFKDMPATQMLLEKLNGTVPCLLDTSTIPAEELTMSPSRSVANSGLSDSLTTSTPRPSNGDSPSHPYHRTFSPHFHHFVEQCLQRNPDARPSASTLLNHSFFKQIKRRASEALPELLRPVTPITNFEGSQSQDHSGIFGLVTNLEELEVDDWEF
T2 sequence (Q9Y376 1-341 partner): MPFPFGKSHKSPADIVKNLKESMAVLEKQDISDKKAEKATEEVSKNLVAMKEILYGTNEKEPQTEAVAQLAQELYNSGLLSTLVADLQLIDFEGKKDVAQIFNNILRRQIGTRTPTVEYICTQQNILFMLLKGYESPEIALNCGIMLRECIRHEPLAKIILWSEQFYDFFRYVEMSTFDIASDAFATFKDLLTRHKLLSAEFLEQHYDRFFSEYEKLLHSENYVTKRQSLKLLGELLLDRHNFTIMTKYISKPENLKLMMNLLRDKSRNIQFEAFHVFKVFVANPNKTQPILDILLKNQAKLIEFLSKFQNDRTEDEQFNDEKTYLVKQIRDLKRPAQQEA
Method in brief: as §1

PAK4(h) = biological target: T3, PAK4(h) (Homo sapiens, UniProt O96013)
T3 construct: purchased Millipore
Method in brief: as §1

MAPKAP-K2(h) = biological target: T4, MAPKAP-K2(h) (Homo sapiens, UniProt P49137)
T4 construct: purchased Millipore
Method in brief: as §1

FGFR1(h) = FGFR1(h) (Homo sapiens, UniProt P11362)
Method in brief: as §1

SAPK3(h) = biological target: T5, SAPK3(h) (Homo sapiens, UniProt P53778)
T5 construct: purchased Millipore
T5 sequence (P53778 1-367): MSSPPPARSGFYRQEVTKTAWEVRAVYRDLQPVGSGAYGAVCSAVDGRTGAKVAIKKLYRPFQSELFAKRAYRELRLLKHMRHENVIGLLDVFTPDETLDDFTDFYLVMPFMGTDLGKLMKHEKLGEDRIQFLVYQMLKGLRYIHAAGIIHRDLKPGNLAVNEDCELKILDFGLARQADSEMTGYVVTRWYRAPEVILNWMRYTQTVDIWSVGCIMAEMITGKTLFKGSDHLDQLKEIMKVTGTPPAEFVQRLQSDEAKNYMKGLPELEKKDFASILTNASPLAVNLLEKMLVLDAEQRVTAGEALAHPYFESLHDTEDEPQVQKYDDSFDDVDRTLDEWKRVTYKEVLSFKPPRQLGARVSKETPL
Method in brief: as §1

Flt3(D835Y)(h) = Flt3(D835Y)(h) (Homo sapiens, UniProt P36888, D835Y)
Method in brief: as §1

CDK3/cyclinE(h) = CDK3/cyclinE(h) (Homo sapiens, UniProt Q00526)
Method in brief: as §1

TLK2(h) = TLK2(h) (Homo sapiens, UniProt Q86UE8)
Method in brief: as §1

Met(Y1248H)(h) = biological target: T6, Met(Y1248H)(h) (Homo sapiens, UniProt P08581, Y1230H)
T6 construct: purchased Millipore
Method in brief: as §1

MRCKα(h) = biological target: T7, MRCKα(h) (Homo sapiens, UniProt Q5VT25)
T7 construct: purchased Millipore
Method in brief: as §1

T4 sequence (P49137 whole entry): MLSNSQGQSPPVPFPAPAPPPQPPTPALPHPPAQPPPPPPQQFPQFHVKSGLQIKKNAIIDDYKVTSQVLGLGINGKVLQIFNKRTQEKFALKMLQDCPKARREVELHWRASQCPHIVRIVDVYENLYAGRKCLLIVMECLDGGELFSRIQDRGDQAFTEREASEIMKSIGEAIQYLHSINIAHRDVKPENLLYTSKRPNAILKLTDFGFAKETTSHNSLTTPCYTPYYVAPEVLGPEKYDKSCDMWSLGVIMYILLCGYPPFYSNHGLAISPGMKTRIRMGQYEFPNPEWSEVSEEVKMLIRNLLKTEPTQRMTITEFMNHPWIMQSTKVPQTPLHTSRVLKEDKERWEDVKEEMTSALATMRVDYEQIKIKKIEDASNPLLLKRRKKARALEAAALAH
Sequence of FGFR1(h) (P11362 22-822): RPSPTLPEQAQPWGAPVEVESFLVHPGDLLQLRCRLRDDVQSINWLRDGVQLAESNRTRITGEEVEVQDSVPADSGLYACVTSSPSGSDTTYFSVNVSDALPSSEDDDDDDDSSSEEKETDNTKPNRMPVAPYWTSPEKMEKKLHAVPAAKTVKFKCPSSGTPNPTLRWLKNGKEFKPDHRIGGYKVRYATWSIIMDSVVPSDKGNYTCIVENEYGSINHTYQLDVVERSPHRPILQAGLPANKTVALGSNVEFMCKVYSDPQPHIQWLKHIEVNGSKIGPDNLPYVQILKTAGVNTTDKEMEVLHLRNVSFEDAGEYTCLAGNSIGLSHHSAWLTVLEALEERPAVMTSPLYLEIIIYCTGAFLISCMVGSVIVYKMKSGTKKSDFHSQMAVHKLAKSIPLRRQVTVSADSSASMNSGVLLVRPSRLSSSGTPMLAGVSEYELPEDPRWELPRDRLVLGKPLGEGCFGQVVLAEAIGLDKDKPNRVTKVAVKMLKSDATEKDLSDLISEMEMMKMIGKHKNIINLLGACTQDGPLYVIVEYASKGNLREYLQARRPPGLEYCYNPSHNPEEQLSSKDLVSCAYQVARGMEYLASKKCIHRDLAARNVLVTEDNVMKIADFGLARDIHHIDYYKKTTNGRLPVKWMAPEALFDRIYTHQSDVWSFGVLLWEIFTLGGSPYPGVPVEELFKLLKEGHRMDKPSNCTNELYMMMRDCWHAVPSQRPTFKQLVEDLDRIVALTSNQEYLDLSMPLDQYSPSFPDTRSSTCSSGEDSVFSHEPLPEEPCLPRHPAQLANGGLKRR
Sequence of CHK2(R145W)(h) (O96017 whole entry R145W): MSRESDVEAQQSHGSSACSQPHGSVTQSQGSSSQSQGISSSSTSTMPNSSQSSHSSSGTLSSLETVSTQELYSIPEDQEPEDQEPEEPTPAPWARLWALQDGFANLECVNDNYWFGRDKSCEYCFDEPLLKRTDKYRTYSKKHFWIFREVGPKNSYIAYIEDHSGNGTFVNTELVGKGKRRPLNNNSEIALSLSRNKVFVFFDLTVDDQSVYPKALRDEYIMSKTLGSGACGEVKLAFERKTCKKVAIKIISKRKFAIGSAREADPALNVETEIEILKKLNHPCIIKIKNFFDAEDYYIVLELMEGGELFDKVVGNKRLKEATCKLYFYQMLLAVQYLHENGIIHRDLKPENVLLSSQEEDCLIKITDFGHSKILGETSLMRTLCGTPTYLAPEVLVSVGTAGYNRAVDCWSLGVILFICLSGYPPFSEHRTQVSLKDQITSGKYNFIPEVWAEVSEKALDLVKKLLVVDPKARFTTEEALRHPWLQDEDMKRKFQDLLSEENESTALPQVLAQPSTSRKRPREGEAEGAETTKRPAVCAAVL
Sequence of TLK2(h) (Q86UE8 whole entry): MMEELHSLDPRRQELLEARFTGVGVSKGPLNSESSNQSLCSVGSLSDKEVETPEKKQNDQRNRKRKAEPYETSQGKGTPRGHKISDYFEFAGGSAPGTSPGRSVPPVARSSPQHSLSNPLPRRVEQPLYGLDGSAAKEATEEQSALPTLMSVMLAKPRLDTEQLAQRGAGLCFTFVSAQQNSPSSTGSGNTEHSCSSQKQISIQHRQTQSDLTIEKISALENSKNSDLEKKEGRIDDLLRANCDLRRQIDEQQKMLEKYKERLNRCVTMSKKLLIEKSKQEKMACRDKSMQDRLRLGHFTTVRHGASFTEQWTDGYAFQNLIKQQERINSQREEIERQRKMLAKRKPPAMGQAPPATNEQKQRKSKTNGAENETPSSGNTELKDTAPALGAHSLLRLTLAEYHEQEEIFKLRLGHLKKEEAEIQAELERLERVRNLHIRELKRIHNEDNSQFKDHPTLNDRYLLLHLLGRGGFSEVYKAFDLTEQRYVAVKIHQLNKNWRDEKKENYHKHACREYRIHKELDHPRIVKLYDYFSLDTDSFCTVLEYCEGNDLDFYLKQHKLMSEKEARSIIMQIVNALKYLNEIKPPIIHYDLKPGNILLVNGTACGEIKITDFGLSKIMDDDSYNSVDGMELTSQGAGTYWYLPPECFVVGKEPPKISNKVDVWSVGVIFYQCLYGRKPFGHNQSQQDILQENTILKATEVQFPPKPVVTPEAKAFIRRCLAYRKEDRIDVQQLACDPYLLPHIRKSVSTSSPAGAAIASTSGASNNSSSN
T1 sequence (P45983 1-384 isoform P45983-2): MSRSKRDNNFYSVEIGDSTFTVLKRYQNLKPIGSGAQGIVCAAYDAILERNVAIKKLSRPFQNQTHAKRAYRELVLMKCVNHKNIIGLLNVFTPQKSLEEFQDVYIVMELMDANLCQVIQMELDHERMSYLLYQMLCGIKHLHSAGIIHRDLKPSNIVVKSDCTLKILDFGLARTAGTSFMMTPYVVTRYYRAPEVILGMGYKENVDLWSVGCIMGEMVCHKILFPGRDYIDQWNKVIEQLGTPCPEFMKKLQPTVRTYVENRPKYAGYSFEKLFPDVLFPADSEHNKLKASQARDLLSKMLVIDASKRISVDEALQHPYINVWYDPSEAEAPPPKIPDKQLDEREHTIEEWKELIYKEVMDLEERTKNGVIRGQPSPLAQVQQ
T7 sequence (Q5VT25 whole entry): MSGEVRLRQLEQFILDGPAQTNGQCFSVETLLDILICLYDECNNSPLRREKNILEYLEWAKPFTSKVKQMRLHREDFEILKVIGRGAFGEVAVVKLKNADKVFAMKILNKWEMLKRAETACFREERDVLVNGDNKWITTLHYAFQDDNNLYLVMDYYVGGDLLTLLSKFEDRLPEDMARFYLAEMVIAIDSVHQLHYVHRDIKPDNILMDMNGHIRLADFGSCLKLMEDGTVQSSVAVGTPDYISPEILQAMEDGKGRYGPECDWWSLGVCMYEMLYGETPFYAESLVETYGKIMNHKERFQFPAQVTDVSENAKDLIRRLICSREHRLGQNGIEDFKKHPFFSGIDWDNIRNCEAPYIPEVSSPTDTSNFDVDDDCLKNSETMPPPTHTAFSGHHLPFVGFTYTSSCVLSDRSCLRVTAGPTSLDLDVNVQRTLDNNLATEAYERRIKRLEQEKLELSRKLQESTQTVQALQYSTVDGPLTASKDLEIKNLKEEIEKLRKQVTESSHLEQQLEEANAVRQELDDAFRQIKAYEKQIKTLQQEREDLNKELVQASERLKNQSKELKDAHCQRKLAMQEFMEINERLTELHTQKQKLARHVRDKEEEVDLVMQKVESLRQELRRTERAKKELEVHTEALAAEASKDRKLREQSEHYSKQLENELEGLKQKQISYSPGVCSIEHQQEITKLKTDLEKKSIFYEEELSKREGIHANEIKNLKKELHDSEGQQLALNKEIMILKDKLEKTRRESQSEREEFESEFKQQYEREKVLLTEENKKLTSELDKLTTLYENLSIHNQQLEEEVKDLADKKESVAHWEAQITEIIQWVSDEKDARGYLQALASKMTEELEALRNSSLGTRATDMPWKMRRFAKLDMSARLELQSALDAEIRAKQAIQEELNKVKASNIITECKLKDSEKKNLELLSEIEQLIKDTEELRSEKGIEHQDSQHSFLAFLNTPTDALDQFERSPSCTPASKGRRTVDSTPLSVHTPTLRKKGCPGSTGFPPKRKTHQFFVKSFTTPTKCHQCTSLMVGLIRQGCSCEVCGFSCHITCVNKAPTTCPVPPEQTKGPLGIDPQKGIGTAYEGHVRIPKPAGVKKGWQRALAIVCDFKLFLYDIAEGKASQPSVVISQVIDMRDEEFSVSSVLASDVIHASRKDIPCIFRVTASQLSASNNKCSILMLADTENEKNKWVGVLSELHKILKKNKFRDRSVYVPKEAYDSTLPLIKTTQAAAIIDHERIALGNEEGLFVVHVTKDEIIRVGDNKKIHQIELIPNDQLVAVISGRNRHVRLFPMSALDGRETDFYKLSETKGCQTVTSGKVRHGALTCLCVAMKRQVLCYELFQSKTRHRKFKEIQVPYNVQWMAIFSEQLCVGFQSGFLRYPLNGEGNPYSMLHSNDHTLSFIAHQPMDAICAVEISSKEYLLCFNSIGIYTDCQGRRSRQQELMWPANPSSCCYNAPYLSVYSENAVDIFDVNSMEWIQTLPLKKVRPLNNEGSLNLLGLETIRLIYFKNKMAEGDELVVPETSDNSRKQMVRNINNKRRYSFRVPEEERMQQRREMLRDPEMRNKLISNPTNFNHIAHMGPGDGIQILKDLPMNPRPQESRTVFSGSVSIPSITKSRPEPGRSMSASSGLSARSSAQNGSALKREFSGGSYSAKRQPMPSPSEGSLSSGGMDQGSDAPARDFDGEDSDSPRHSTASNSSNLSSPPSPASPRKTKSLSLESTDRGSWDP
Sequence of Aurora-B(h) (Q96GD4 whole entry): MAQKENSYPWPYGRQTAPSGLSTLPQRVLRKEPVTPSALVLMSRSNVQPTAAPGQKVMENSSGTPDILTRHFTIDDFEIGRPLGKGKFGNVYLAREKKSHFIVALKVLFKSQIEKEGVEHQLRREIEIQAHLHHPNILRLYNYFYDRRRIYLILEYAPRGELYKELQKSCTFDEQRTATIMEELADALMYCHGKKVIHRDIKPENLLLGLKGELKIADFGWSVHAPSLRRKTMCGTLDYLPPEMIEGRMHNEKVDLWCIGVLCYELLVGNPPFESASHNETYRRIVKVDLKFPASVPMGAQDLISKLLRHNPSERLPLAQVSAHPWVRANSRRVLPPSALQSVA

Sequence | % activity (JNK1α1(h)) [%] | % activity (Flt1(h)) [%] | % activity (Abl(T315I)(h)) [%] | % activity (FGFR4(h)) [%] | % activity (CaMKIIβ(h)) [%] | % activity (CHK2(R145W)(h)) [%] | % activity (Aurora-B(h)) [%] | % activity (LKB1(h)) [%] | % activity (PAK4(h)) [%] | % activity (MAPKAP-K2(h)) [%] | % activity (FGFR1(h)) [%] | % activity (SAPK3(h)) [%] | % activity (Flt3(D835Y)(h)) [%] | % activity (CDK3/cyclinE(h)) [%] | % activity (TLK2(h)) [%] | % activity (Met(Y1248H)(h)) [%] | % activity (MRCKα(h)) [%]
FAKLAARLYRKALARQLGVAA [MMI-0300] | 97 | 69 | 97 | 28 | 2 | 33 | 128 | 101 | 94 | 5 | 55 | 84 | 80 | 94 |  |  | 
HRRIKAWLKKIKALARQLGVAA (Mammal) [MMI-0500] |  | 27 | 16 | 3 | 3 | 3 | 5 | 51 | 86 | 9 | 18 | 24 | 65 | 8 | 133 | 126 | 5
KAFAKLAARLYRKALARQLGVAA [MMI-0400] | 98 | 48 |  | 19 | 11 | 31 | 150 | 89 | 89 | 5 | 59 | 79 | 71 | 92 | 151 | 63 | 97
YARAAARQARAKALARQLGVAA [MMI-0100] | 91 |  | 98 |  |  | 97 |  |  | 92 | 19 | 120 |  | 120 |  |  | 88 | 98
YARAAARQARAKALNRQLGVA (Mammal) [MMI-0200] |  | 96 | 108 | 75 | 53 | 81 | 166 | 99 | 98 | 35 | 97 | 97 |  |  | 129 | 153 | 
